From patent US20150344570A1 (published 2015)

T1: FcγRIIa R (extracellular domain, His tag at the C terminus) (human, UniProt P12318 34-217)
T1 construct: extracellular domain; Soluble analyte in Biacore; also called FcgRIIa R type; 2aR
T1 sequence (looked up): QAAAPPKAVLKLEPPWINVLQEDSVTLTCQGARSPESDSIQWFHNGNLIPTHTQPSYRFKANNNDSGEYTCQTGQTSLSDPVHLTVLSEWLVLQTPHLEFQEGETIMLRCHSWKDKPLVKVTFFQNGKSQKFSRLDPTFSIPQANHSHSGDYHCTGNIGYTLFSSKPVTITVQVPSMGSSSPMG


Target: T1, FcγRIIa R (extracellular domain, His …)
Test: SPR (Biacore), relative binding, control GpH7-A5/GpH7-B3/GpL16-k0 = 100
Experimental: Analysis of interaction between objective antibody and the FcγR was carried out using Biacore T100 (GE Healthcare). HBS-EP+ (GE Healthcare) was used as the running buffer, and the measurement temperature was set to 25° C. Chips produced by immobilizing the antigen peptide by the amine coupling method to a Series S Sencor Chip CM5 (GE Healthcare), or alternatively, chips produced by allowing preliminarily biotinylated antigen peptides to interact with and immobilize onto a Series S Sensor Chip SA (certified) (GE Healthcare) were used. Antibodies of interest were captured onto an antigen peptide-immobilized chip, and allowed to interact to each FcγR diluted with running buffer. To regenerate and repeatedly use the chip, the antibodies captured on the chip were washed off by reacting 10 mM glycine-HCl, pH 1.5.

Row | Binder | He/Con_2aR
1 | GpH7-A5/GpH7-B3 variant I332_15Y/GpL16-k0 (antibody, human IgG1, kappa, heterodimerized; also called He Ab) heavy 1: not shown heavy 2: not shown light: DIVMTQSPLSLPVTPGEPASISCQASESLVHSNRNTYLHWYLQKPGQSPQLLIYKVSNRFSGVPDRFSGSGSGTDFTLKISRVEAEDVGVYYCSQNTHVPPTFGQGTKVEIERTVAAPSVFIFPPSDEQLKSGTASVVCLLNNFYPREAKVQWKVDNALQSGNSQESVTEQDSKDSTYSLSSTLTLSKADYEKHKVYACEVTHQGLSSPVTKSFNRGEC | 110 % of control
2 | GpH7-A5/GpH7-B3 variant L328_03V/GpL16-k0 (antibody, human IgG1, kappa, heterodimerized; also called He Ab) heavy 1: not shown heavy 2: not shown light: DIVMTQSPLSLPVTPGEPASISCQASESLVHSNRNTYLHWYLQKPGQSPQLLIYKVSNRFSGVPDRFSGSGSGTDFTLKISRVEAEDVGVYYCSQNTHVPPTFGQGTKVEIERTVAAPSVFIFPPSDEQLKSGTASVVCLLNNFYPREAKVQWKVDNALQSGNSQESVTEQDSKDSTYSLSSTLTLSKADYEKHKVYACEVTHQGLSSPVTKSFNRGEC | 116 % of control
3 | GpH7-A5/GpH7-B3 variant P238_08L/GpL16-k0 (antibody, human IgG1, kappa, heterodimerized; also called He Ab) heavy 1: not shown heavy 2: not shown light: DIVMTQSPLSLPVTPGEPASISCQASESLVHSNRNTYLHWYLQKPGQSPQLLIYKVSNRFSGVPDRFSGSGSGTDFTLKISRVEAEDVGVYYCSQNTHVPPTFGQGTKVEIERTVAAPSVFIFPPSDEQLKSGTASVVCLLNNFYPREAKVQWKVDNALQSGNSQESVTEQDSKDSTYSLSSTLTLSKADYEKHKVYACEVTHQGLSSPVTKSFNRGEC | 140 % of control
4 | GpH7-A5/GpH7-B3 variant K326_09D/GpL16-k0 (antibody, human IgG1, kappa, heterodimerized; also called He Ab) heavy 1: not shown heavy 2: not shown light: DIVMTQSPLSLPVTPGEPASISCQASESLVHSNRNTYLHWYLQKPGQSPQLLIYKVSNRFSGVPDRFSGSGSGTDFTLKISRVEAEDVGVYYCSQNTHVPPTFGQGTKVEIERTVAAPSVFIFPPSDEQLKSGTASVVCLLNNFYPREAKVQWKVDNALQSGNSQESVTEQDSKDSTYSLSSTLTLSKADYEKHKVYACEVTHQGLSSPVTKSFNRGEC | 148 % of control
5 | GpH7-A5/GpH7-B3 variant K334_16H/GpL16-k0 (antibody, human IgG1, kappa, heterodimerized; also called He Ab) heavy 1: not shown heavy 2: not shown light: DIVMTQSPLSLPVTPGEPASISCQASESLVHSNRNTYLHWYLQKPGQSPQLLIYKVSNRFSGVPDRFSGSGSGTDFTLKISRVEAEDVGVYYCSQNTHVPPTFGQGTKVEIERTVAAPSVFIFPPSDEQLKSGTASVVCLLNNFYPREAKVQWKVDNALQSGNSQESVTEQDSKDSTYSLSSTLTLSKADYEKHKVYACEVTHQGLSSPVTKSFNRGEC | 109 % of control
6 | GpH7-A5/GpH7-B3 variant L328_07I/GpL16-k0 (antibody, human IgG1, kappa, heterodimerized; also called He Ab) heavy 1: not shown heavy 2: not shown light: DIVMTQSPLSLPVTPGEPASISCQASESLVHSNRNTYLHWYLQKPGQSPQLLIYKVSNRFSGVPDRFSGSGSGTDFTLKISRVEAEDVGVYYCSQNTHVPPTFGQGTKVEIERTVAAPSVFIFPPSDEQLKSGTASVVCLLNNFYPREAKVQWKVDNALQSGNSQESVTEQDSKDSTYSLSSTLTLSKADYEKHKVYACEVTHQGLSSPVTKSFNRGEC | 124 % of control
7 | GpH7-A5/GpH7-B3 variant K334_18N/GpL16-k0 (antibody, human IgG1, kappa, heterodimerized; also called He Ab) heavy 1: not shown heavy 2: not shown light: DIVMTQSPLSLPVTPGEPASISCQASESLVHSNRNTYLHWYLQKPGQSPQLLIYKVSNRFSGVPDRFSGSGSGTDFTLKISRVEAEDVGVYYCSQNTHVPPTFGQGTKVEIERTVAAPSVFIFPPSDEQLKSGTASVVCLLNNFYPREAKVQWKVDNALQSGNSQESVTEQDSKDSTYSLSSTLTLSKADYEKHKVYACEVTHQGLSSPVTKSFNRGEC | 112 % of control
8 | GpH7-A5/GpH7-B3 variant K326_16H/GpL16-k0 (antibody, human IgG1, kappa, heterodimerized; also called He Ab) heavy 1: not shown heavy 2: not shown light: DIVMTQSPLSLPVTPGEPASISCQASESLVHSNRNTYLHWYLQKPGQSPQLLIYKVSNRFSGVPDRFSGSGSGTDFTLKISRVEAEDVGVYYCSQNTHVPPTFGQGTKVEIERTVAAPSVFIFPPSDEQLKSGTASVVCLLNNFYPREAKVQWKVDNALQSGNSQESVTEQDSKDSTYSLSSTLTLSKADYEKHKVYACEVTHQGLSSPVTKSFNRGEC | 120 % of control
9 | GpH7-A5/GpH7-B3 variant K326_06M/GpL16-k0 (antibody, human IgG1, kappa, heterodimerized; also called He Ab) heavy 1: not shown heavy 2: not shown light: DIVMTQSPLSLPVTPGEPASISCQASESLVHSNRNTYLHWYLQKPGQSPQLLIYKVSNRFSGVPDRFSGSGSGTDFTLKISRVEAEDVGVYYCSQNTHVPPTFGQGTKVEIERTVAAPSVFIFPPSDEQLKSGTASVVCLLNNFYPREAKVQWKVDNALQSGNSQESVTEQDSKDSTYSLSSTLTLSKADYEKHKVYACEVTHQGLSSPVTKSFNRGEC | 138 % of control
10 | GpH7-A5/GpH7-B3 variant S239_01G/GpL16-k0 (antibody, human IgG1, kappa, heterodimerized; also called He Ab) heavy 1: not shown heavy 2: not shown light: DIVMTQSPLSLPVTPGEPASISCQASESLVHSNRNTYLHWYLQKPGQSPQLLIYKVSNRFSGVPDRFSGSGSGTDFTLKISRVEAEDVGVYYCSQNTHVPPTFGQGTKVEIERTVAAPSVFIFPPSDEQLKSGTASVVCLLNNFYPREAKVQWKVDNALQSGNSQESVTEQDSKDSTYSLSSTLTLSKADYEKHKVYACEVTHQGLSSPVTKSFNRGEC | 128 % of control
11 | GpH7-A5/GpH7-B3 variant P271_01G/GpL16-k0 (antibody, human IgG1, kappa, heterodimerized; also called He Ab) heavy 1: not shown heavy 2: not shown light: DIVMTQSPLSLPVTPGEPASISCQASESLVHSNRNTYLHWYLQKPGQSPQLLIYKVSNRFSGVPDRFSGSGSGTDFTLKISRVEAEDVGVYYCSQNTHVPPTFGQGTKVEIERTVAAPSVFIFPPSDEQLKSGTASVVCLLNNFYPREAKVQWKVDNALQSGNSQESVTEQDSKDSTYSLSSTLTLSKADYEKHKVYACEVTHQGLSSPVTKSFNRGEC | 144 % of control
12 | GpH7-A5/GpH7-B3 variant K326_19Q/GpL16-k0 (antibody, human IgG1, kappa, heterodimerized; also called He Ab) heavy 1: not shown heavy 2: not shown light: DIVMTQSPLSLPVTPGEPASISCQASESLVHSNRNTYLHWYLQKPGQSPQLLIYKVSNRFSGVPDRFSGSGSGTDFTLKISRVEAEDVGVYYCSQNTHVPPTFGQGTKVEIERTVAAPSVFIFPPSDEQLKSGTASVVCLLNNFYPREAKVQWKVDNALQSGNSQESVTEQDSKDSTYSLSSTLTLSKADYEKHKVYACEVTHQGLSSPVTKSFNRGEC | 129 % of control
13 | GpH7-A5/GpH7-B3 variant L328_04F/GpL16-k0 (antibody, human IgG1, kappa, heterodimerized; also called He Ab) heavy 1: not shown heavy 2: not shown light: DIVMTQSPLSLPVTPGEPASISCQASESLVHSNRNTYLHWYLQKPGQSPQLLIYKVSNRFSGVPDRFSGSGSGTDFTLKISRVEAEDVGVYYCSQNTHVPPTFGQGTKVEIERTVAAPSVFIFPPSDEQLKSGTASVVCLLNNFYPREAKVQWKVDNALQSGNSQESVTEQDSKDSTYSLSSTLTLSKADYEKHKVYACEVTHQGLSSPVTKSFNRGEC | 138 % of control
14 | GpH7-A5/GpH7-B3 variant K334_07I/GpL16-k0 (antibody, human IgG1, kappa, heterodimerized; also called He Ab) heavy 1: not shown heavy 2: not shown light: DIVMTQSPLSLPVTPGEPASISCQASESLVHSNRNTYLHWYLQKPGQSPQLLIYKVSNRFSGVPDRFSGSGSGTDFTLKISRVEAEDVGVYYCSQNTHVPPTFGQGTKVEIERTVAAPSVFIFPPSDEQLKSGTASVVCLLNNFYPREAKVQWKVDNALQSGNSQESVTEQDSKDSTYSLSSTLTLSKADYEKHKVYACEVTHQGLSSPVTKSFNRGEC | 114 % of control
15 | GpH7-A5/GpH7-B3 variant K334_03V/GpL16-k0 (antibody, human IgG1, kappa, heterodimerized; also called He Ab) heavy 1: not shown heavy 2: not shown light: DIVMTQSPLSLPVTPGEPASISCQASESLVHSNRNTYLHWYLQKPGQSPQLLIYKVSNRFSGVPDRFSGSGSGTDFTLKISRVEAEDVGVYYCSQNTHVPPTFGQGTKVEIERTVAAPSVFIFPPSDEQLKSGTASVVCLLNNFYPREAKVQWKVDNALQSGNSQESVTEQDSKDSTYSLSSTLTLSKADYEKHKVYACEVTHQGLSSPVTKSFNRGEC | 117 % of control
16 | GpH7-A5/GpH7-B3 variant K334_15Y/GpL16-k0 (antibody, human IgG1, kappa, heterodimerized; also called He Ab) heavy 1: not shown heavy 2: not shown light: DIVMTQSPLSLPVTPGEPASISCQASESLVHSNRNTYLHWYLQKPGQSPQLLIYKVSNRFSGVPDRFSGSGSGTDFTLKISRVEAEDVGVYYCSQNTHVPPTFGQGTKVEIERTVAAPSVFIFPPSDEQLKSGTASVVCLLNNFYPREAKVQWKVDNALQSGNSQESVTEQDSKDSTYSLSSTLTLSKADYEKHKVYACEVTHQGLSSPVTKSFNRGEC | 108 % of control
17 | GpH7-A5/GpH7-B3 variant L328_15Y/GpL16-k0 (antibody, human IgG1, kappa, heterodimerized; also called He Ab) heavy 1: not shown heavy 2: not shown light: DIVMTQSPLSLPVTPGEPASISCQASESLVHSNRNTYLHWYLQKPGQSPQLLIYKVSNRFSGVPDRFSGSGSGTDFTLKISRVEAEDVGVYYCSQNTHVPPTFGQGTKVEIERTVAAPSVFIFPPSDEQLKSGTASVVCLLNNFYPREAKVQWKVDNALQSGNSQESVTEQDSKDSTYSLSSTLTLSKADYEKHKVYACEVTHQGLSSPVTKSFNRGEC | 136 % of control
18 | GpH7-A5/GpH7-B3 variant K326_10E/GpL16-k0 (antibody, human IgG1, kappa, heterodimerized; also called He Ab) heavy 1: not shown heavy 2: not shown light: DIVMTQSPLSLPVTPGEPASISCQASESLVHSNRNTYLHWYLQKPGQSPQLLIYKVSNRFSGVPDRFSGSGSGTDFTLKISRVEAEDVGVYYCSQNTHVPPTFGQGTKVEIERTVAAPSVFIFPPSDEQLKSGTASVVCLLNNFYPREAKVQWKVDNALQSGNSQESVTEQDSKDSTYSLSSTLTLSKADYEKHKVYACEVTHQGLSSPVTKSFNRGEC | 148 % of control
19 | GpH7-A5/GpH7-B3 variant K334_14T/GpL16-k0 (antibody, human IgG1, kappa, heterodimerized; also called He Ab) heavy 1: not shown heavy 2: not shown light: DIVMTQSPLSLPVTPGEPASISCQASESLVHSNRNTYLHWYLQKPGQSPQLLIYKVSNRFSGVPDRFSGSGSGTDFTLKISRVEAEDVGVYYCSQNTHVPPTFGQGTKVEIERTVAAPSVFIFPPSDEQLKSGTASVVCLLNNFYPREAKVQWKVDNALQSGNSQESVTEQDSKDSTYSLSSTLTLSKADYEKHKVYACEVTHQGLSSPVTKSFNRGEC | 112 % of control
20 | GpH7-A5/GpH7-B3 variant K326_14T/GpL16-k0 (antibody, human IgG1, kappa, heterodimerized; also called He Ab) heavy 1: not shown heavy 2: not shown light: DIVMTQSPLSLPVTPGEPASISCQASESLVHSNRNTYLHWYLQKPGQSPQLLIYKVSNRFSGVPDRFSGSGSGTDFTLKISRVEAEDVGVYYCSQNTHVPPTFGQGTKVEIERTVAAPSVFIFPPSDEQLKSGTASVVCLLNNFYPREAKVQWKVDNALQSGNSQESVTEQDSKDSTYSLSSTLTLSKADYEKHKVYACEVTHQGLSSPVTKSFNRGEC | 134 % of control
21 | GpH7-A5/GpH7-B3 variant L328_06M/GpL16-k0 (antibody, human IgG1, kappa, heterodimerized; also called He Ab) heavy 1: not shown heavy 2: not shown light: DIVMTQSPLSLPVTPGEPASISCQASESLVHSNRNTYLHWYLQKPGQSPQLLIYKVSNRFSGVPDRFSGSGSGTDFTLKISRVEAEDVGVYYCSQNTHVPPTFGQGTKVEIERTVAAPSVFIFPPSDEQLKSGTASVVCLLNNFYPREAKVQWKVDNALQSGNSQESVTEQDSKDSTYSLSSTLTLSKADYEKHKVYACEVTHQGLSSPVTKSFNRGEC | 115 % of control
